Experimental data as given in patent US20220074941A1, “HSP90 COMBINATION THERAPY” (Sloan-Kettering Institute for Cancer Research, priority 2011, published 2022).

B1: O60613 (protein, UniProt O60613 1-165, looked up)
chain: MVAMAAGPSGCLVPAFGLRLLLATVLQAVSAFGAEFSSEACRELGFSSNLLCSSCDLLGQFNLLQLDPDCRGCCQEEAQFETKKLYAGAILEVCGUKLGRFPQVQAFVRSDKPKLFRGLQIKYVRGSDPVLKLLDDNGNIAEELSILKWNTDSVEEFLSEKLERI
modifications: full-length
B2: ASCC2 (protein, UniProt Q9H1I8 1-757, looked up)
Activating signal …: MPALPLDQLQITHKDPKTGKLRTSPALHPEQKADRYFVLYKPPPKDNIPALVEEYLERATFVANDLDWLLALPHDKFWCQVIFDETLQKCLDSYLRYVPRKFDEGVASAPEVVDMQKRLHRSVFLTFLRMSTHKESKDHFISPSAFGEILYNNFLFDIPKILDLCVLFGKGNSPLLQKMIGNIFTQQPSYYSDLDETLPTILQVFSNILQHCGLQGDGANTTPQKLEERGRLTPSDMPLLELKDIVLYLCDTCTTLWAFLDIFPLACQTFQKHDFCYRLASFYEAAIPEMESAIKKRRLEDSKLLGDLWQRLSHSRKKLMEIFHIILNQICLLPILESSCDNIQGFIEEFLQIFSSLLQEKRFLRDYDALFPVAEDISLLQQASSVLDETRTAYILQAVESAWEGVDRRKATDAKDPSVIEEPNGEPNGVTVTAEAVSQASSHPENSEEEECMGAAAAVGPAMCGVELDSLISQVKDLLPDLGEGFILACLEYYHYDPEQVINNILEERLAPTLSQLDRNLDREMKPDPTPLLTSRHNVFQNDEFDVFSRDSVDLSRVHKGKSTRKEENTRSLLNDKRAVAAQRQRYEQYSVVVEEVPLQPGESLPYHSVYYEDEYDDTYDGNQVGANDADSDDELISRRPFTIPQVLRTKVPREGQEEDDDDEEDDADEEAPKPDHFVQDPAVLREKAEARRMAFLAKKGYRHDSSTAVAGSPRGHGQSRETTQERRKKEANKATRANHNRRTMADRKRSKGMIPS
B3: MLF2 (protein, UniProt Q15773 1-248, looked up)
Myeloid leukemia factor 2: MFRFMRDVEPEDPMFLMDPFAIHRQHMSRMLSGGFGYSPFLSITDGNMPGTRPASRRMQQAGAVSPFGMLGMSGGFMDMFGMMNDMIGNMEHMTAGGNCQTFSSSTVISYSNTGDGAPKVYQETSEMRSAPGGIRETRRTVRDSDSGLEQMSIGHHIRDRAHILQRSRNHRTGDQEERQDYINLDESEAAAFDDEWRRETSRFRQQRPLEFRRLESSGAGGRRAEGPPRLAIQGPEDSPSRQSRRYDW
B4: MOBKL3 (protein, UniProt Q96BX8 1-217, looked up)
MOB kinase activator 3A: MSNPFLKQVFNKDKTFRPKRKFEPGTQRFELHKKAQASLNAGLDLRLAVQLPPGEDLNDWVAVHVVDFFNRVNLIYGTISDGCTEQSCPVMSGGPKYEYRWQDEHKFRKPTALSAPRYMDLLMDWIEAQINNEDLFPTNVGTPFPKNFLQTVRKILSRLFRVFVHVYIHHFDRIAQMGSEAHVNTCYKHFYYFVKEFGLIDTKELEPLKEMTARMCH

These molecules were tested on Hsp90 complexes in Mia-PaCa-2 cell extract (assay: Nano-LC-MS/MS of PU-beads pull-downs). Conditions: protein identified in PU-beads pull-down of Mia-PaCa-2 cell extract; QSTAR-Elite QTof MS.
Type: binding, human
In short: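 They came from PU-bead pull-downs of pre-cleared lysates (control beads, overnight, 4 °C), eluted by boiling in 2% SDS, gel-separated and run by data-dependent nano-ESI QTof MS/MS.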

B1 was tested. Which “Number of Assigned Spectra, Mia-Paca 2” value did it give?
The value was 2.

With B2 as the molecule, how does the “Number of Assigned Spectra, Mia-Paca 2” value read?
The value was 1.

Which “Number of Assigned Spectra, Mia-Paca 2” value does the source give for B3 here?
The value was 1.

For B4, which “Number of Assigned Spectra, Mia-Paca 2” value is on record?
The value was 1.

The molecules below were run on Hsp90 complexes in K562 cell extract (assay: Nano-LC-MS/MS of PU-beads pull-downs). Conditions: protein identified in PU-beads pull-down of K562 cell extract, Prep 1; QSTAR-Elite QTof MS.
Type: binding
In short: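 Proteins were identified by data-dependent nano LC-MS/MS (QTof, ESI) and Mascot searching (p<0.05), then reported as spectral counts and coverage via Scaffold. Inputs were PU-bead versus control-bead pull-downs from lysate pre-cleared with control beads overnight at 4 °C, eluted by boiling in 2% SDS.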

For B1, which “Number of Assigned Spectra, K562 Prep 1” value is on record?
Its value is 0.

With B2 as the molecule, how does the “Number of Assigned Spectra, K562 Prep 1” value read?
Its value is 0.

For B3, which “Number of Assigned Spectra, K562 Prep 1” value is on record?
The value was 2.

Which “Number of Assigned Spectra, K562 Prep 1” value does the source give for B4 here?
Its value is 0.

Same assay, conditions: protein identified in PU-beads pull-down of K562 cell extract, Prep 2; QSTAR-Elite QTof MS

B1 was tested. Which “Number of Assigned Spectra, K562 Prep 2” value did it give?
The value was 0.

Which “Number of Assigned Spectra, K562 Prep 2” value does the source give for B2 here?
The value was 0.

Which “Number of Assigned Spectra, K562 Prep 2” value does the source give for B3 here?
Its value is 0.

Which “Number of Assigned Spectra, K562 Prep 2” value does the source give for B4 here?
Its value is 0.
